The values that follow come from US20260139048A1 (NANJING LEGEND BIOTECH, published 2026).

Where two headings read alike, the source gives them in different places.

The target of test [1] is T1, human TIGIT expressed on CHO-K1 cells (human, UniProt Q495A1 22-244).
T1 construct: whole, on cells; also called human TIGIT-CHO-K1 cells; human TIGIT over-expressing cell line
T1 sequence (looked up): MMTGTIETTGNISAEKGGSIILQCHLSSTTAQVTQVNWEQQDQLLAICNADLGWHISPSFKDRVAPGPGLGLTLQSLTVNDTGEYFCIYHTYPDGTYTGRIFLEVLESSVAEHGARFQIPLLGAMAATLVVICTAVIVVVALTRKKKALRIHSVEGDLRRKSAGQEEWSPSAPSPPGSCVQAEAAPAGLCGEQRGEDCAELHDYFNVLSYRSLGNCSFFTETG
Nature of the test: flow cytometry competition: biotinylated CD155-Fc on human TIGIT-CHO-K1 cells. On the technique in general: A flow cytometer gives signals particle by particle.

Test [2] deals with T2, cynomolgus TIGIT expressed on CHO-K1 cells (cynomolgus, UniProt A0A7N9I9V4 89-312).
T2 construct: whole, on cells; also called cynomolgus TIGIT over-expressing cell line
The experiment in a line: flow cytometry on CHO-K1 cells expressing cynomolgus TIGIT.

Test [3] has as its target T1, human TIGIT expressed on CHO-K1 cells. The experiment in a line: flow cytometry on CHO-K1 cells expressing human TIGIT.
The target of test [4] is T3, His-tagged human TIGIT (human, UniProt Q495A1 22-141).
T3 construct: SPR analyte; also called human TIGIT protein; not shown: His tag
T3 sequence: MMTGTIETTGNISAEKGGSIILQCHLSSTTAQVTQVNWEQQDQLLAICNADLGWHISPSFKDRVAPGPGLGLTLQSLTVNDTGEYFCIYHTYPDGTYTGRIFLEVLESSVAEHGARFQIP
The experiment in a line: SPR experiment 4, IgG from HEK293 supernatant captured.

In test [5] the target is T3, His-tagged human TIGIT. The experiment in a line: SPR (Biacore T200), antibody captured, His-tagged TIGIT analyte. A general note: Surface plasmon resonance follows binding to a sensor surface in real time, without labels.
In test [6] the target is T4, His-tagged cynomolgus TIGIT (cynomolgus, UniProt A0A7N9I9V4 89-209).
T4 construct: SPR analyte; also called cynomolgus TIGIT protein; not shown: His tag
The test is described as above.

The target of test [7] is T5, TIGIT on TIGIT-over expressing NFAT-Luc/Jurkat effector cells (GenScript reporter cell line) (UniProt Q495A1 22-244, limits assumed).
T5 sequence (looked up): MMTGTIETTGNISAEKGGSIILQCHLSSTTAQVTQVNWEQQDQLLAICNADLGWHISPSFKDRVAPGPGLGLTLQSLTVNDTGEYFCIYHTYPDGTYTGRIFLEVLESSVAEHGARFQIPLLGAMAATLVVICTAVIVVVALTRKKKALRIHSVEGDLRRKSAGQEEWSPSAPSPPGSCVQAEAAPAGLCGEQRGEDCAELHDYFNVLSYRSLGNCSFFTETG
Nature of the test: cell-based or functional assay.

In test [8] the target is T3, His-tagged human TIGIT. The experiment in a line: SPR experiment 1, IgG from HEK293 supernatant captured.
Test [9] deals with T3, His-tagged human TIGIT. The experiment in a line: SPR experiment 2, IgG from HEK293 supernatant captured.
Test [10] deals with T1, human TIGIT expressed on CHO-K1 cells. The experiment in a line: flow cytometry on CHO-K1 cells expressing human TIGIT. The source holds these as a separate data set.
The target of test [11] is T2, cynomolgus TIGIT expressed on CHO-K1 …. The experiment in a line: flow cytometry on CHO-K1 cells expressing cynomolgus TIGIT. This is another data set of the same source.
The target in test [12] is T1, human TIGIT expressed on CHO-K1 cells. The experiment in a line: flow cytometry competition: biotinylated CD155-Fc on human TIGIT-CHO-K1 cells. This is another data set of the same source.
The target in test [13] is T5, TIGIT on TIGIT-over expressing …. Nature of the test: cell-based or functional assay. The source holds these as a separate data set.
Test [14] deals with T3, His-tagged human TIGIT. Nature of the test: SPR (Biacore T200), antibody captured, His-tagged TIGIT analyte. The source holds these as a separate data set.
Test [15] addresses T4, His-tagged cynomolgus TIGIT. The description is as above. The source holds these as a separate data set.
Test [16] deals with T3, His-tagged human TIGIT. The experiment in a line: SPR experiment 2, IgG from HEK293 supernatant captured. The source holds these as a separate data set.
Test [17] deals with T3, His-tagged human TIGIT. The experiment in a line: SPR experiment 1, IgG from HEK293 supernatant captured. The source holds these as a separate data set.

Broadly, the IC50 is the point on the concentration scale where inhibition reaches its midpoint. Higher therefore signals weaker potency. For orientation: EC50 means the concentration that produces a half-maximal response. Low values mean a more potent agent, high ones a less potent agent. The term Kd denotes the concentration at which binding is half-saturated. Higher therefore signals a looser complex. What is called koff is a measure of how fast the partners let go of each other. One may read the kon as the rate constant with which the complex forms. The low end stands for slower complex formation, the high end for faster complex formation.

T2 sequence (A0A7N9I9V4 entry or part of it): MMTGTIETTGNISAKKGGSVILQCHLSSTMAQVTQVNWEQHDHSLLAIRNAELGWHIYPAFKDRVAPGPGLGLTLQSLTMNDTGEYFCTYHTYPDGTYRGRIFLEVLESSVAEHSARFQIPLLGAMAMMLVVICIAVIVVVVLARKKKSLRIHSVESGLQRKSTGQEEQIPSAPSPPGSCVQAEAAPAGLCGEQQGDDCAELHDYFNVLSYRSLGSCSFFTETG
T4 sequence (A0A7N9I9V4 entry or part of it): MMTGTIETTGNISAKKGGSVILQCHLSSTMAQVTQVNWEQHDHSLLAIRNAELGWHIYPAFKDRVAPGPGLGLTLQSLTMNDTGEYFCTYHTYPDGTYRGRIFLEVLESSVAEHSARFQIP

B1: huTIGIT-3-1 (antibody, human IgG1, kappa, V domains shown)
VH: EVQLVESGGGLVQPGGSLRLSCAASGFTFSSYGMSWVRQAPGKGLELVATIKSSGGSTNLADSVKGRFTISRDNSKNTLYLQMNSLRAEDTAVYYCVRGYFDYWGQGTTVTVSS
VL: DIQMTQSPSSLSASVGDRVTITCRASQDIKTALAWYQQKPGKSPKLLIYWASTRQSGVPSRFSGSGSGTDFTLTISSLQPEDVATYYCQQYYSTPYTFGGGTKVEIKR
notes: Humanized IgG; also called 3VH3.M4 + 3VL4.M6
As to B1, the IC50 in test [1] worked out at 0.502 nM. For the same molecule, the 50% effective concentration (EC50) in [2] is 1.72 nM; in test [3] it was 0.511 nM; in test [7] it was 4.92 nM. The Kd came to 0.56 nM with His-tagged human TIGIT [4], 0.54 nM in the test with His-tagged human TIGIT [5] and 18 nM in [6]. Further, the koff is 0.00046 s⁻¹ with His-tagged human TIGIT [4], 0.00031 s⁻¹ with His-tagged human TIGIT [5] and 0.0022 s⁻¹ in [6]. Also, the kon with His-tagged human TIGIT [4] was 820000 M⁻¹ s⁻¹; with His-tagged human TIGIT [5], 570000 M⁻¹ s⁻¹; in test [6] it was 120000 M⁻¹ s⁻¹. The “Bottom (RLU)” value in [7] was 54400 RLU. Moreover, the “Top (RLU)” value in test [7] came out at 152000 RLU.

B2: reshaped TIGIT-3 antibody 3VH3 + 3VL (antibody, V domains shown)
VH: EVQLVESGGGLVQPGGSLRLSCAASGFTFSSYGMSWVRQAPGKGLELVATIKSDGGSTNLPDSVKGRFTISRDNSKNTLYLQMNSLRAEDTAVYYCVRGYFDYWGQGTTVTVSS
VL: DIVMTQSHKFMSTSVGDRVSITCKASQDVKTAVAWYQQKPGQSPKLLIYWSSTRHTGVPDRFTGSRSLTDHTLTISSVQAEDLALYYCQQYYSTPYTFGGGTKLELK
notes: Full-length IgG, tested as HEK293 supernatant
With B2, in the test with His-tagged human TIGIT [8], the Kd stood at 0.25 nM, the koff turned out to be 0.00015 s⁻¹ and the association rate constant (kon) was 580000 M⁻¹ s⁻¹. In addition, in the test with His-tagged human TIGIT [9], binding was characterised by a dissociation constant (Kd) of 0.48 nM, the off-rate constant (koff) came to 0.00025 s⁻¹ and the on-rate constant (kon) stood at 520000 M⁻¹ s⁻¹.

B3: reshaped TIGIT-3 antibody 3VH3.M4 + 3VL (antibody, V domains shown)
VH: EVQLVESGGGLVQPGGSLRLSCAASGFTFSSYGMSWVRQAPGKGLELVATIKSSGGSTNLADSVKGRFTISRDNSKNTLYLQMNSLRAEDTAVYYCVRGYFDYWGQGTTVTVSS
VL: DIVMTQSHKFMSTSVGDRVSITCKASQDVKTAVAWYQQKPGQSPKLLIYWSSTRHTGVPDRFTGSRSLTDHTLTISSVQAEDLALYYCQQYYSTPYTFGGGTKLELK
notes: as for B2
For the molecule B3, in the test with His-tagged human TIGIT [9], the dissociation constant (Kd) was 0.36 nM, the koff was 0.00016 s⁻¹ and the kon worked out at 450000 M⁻¹ s⁻¹.

B4: reshaped TIGIT-3 antibody 3VH3.M4 + 3VL5.M6 (antibody, V domains shown)
VH: EVQLVESGGGLVQPGGSLRLSCAASGFTFSSYGMSWVRQAPGKGLELVATIKSSGGSTNLADSVKGRFTISRDNSKNTLYLQMNSLRAEDTAVYYCVRGYFDYWGQGTTVTVSS
VL: DIQMTQSPSSLSASVGDRVTITCRASQDIKTALAWYQQKPGQSPKLLIYWASTRQSGVPSRFSGSGSGTDFTLTISSLQPEDVATYYCQQYYSTPYTFGGGTKVEIK
notes: as for B2
Regarding B4, in the test with His-tagged human TIGIT [4], binding was characterised by a dissociation constant (Kd) of 0.5 nM, the koff turned out to be 0.00043 s⁻¹ and the kon came to 870000 M⁻¹ s⁻¹.

B5: TIGIT-3 chimeric antibody (antibody, human IgG1, kappa, V domains shown)
VH: EVQLVESGGGLVQPGGSLKLSCAASGFTFSSYGMSWVRQTPDKRLELVATIKSDGGSTNLPDSVKGRFTISRDNAKNTLHLQMSSLKSEDTAMYYCVRGYFDYWGQGTSVTVSS
VL: DIVMTQSHKFMSTSVGDRVSITCKASQDVKTAVAWYQQKPGQSPKLLIYWSSTRHTGVPDRFTGSRSLTDHTLTISSVQAEDLALYYCQQYYSTPYTFGGGTKLELKR
notes: also called 3VH + 3VL
For B5, the half-maximal inhibitory concentration (IC50) in test [1] was 0.558 nM; in test [12], 0.38 nM. For the same molecule, the EC50 stood at 0.53 nM in test [10]; 1.42 nM in test [2]; 2 nM in test [11]; 0.346 nM in test [3]; 2.77 nM in test [13]; 2.1 nM in test [7]. Moreover, the Kd in the test with His-tagged human TIGIT [8] amounted to 0.24 nM; in the test with His-tagged human TIGIT [4], 0.28 nM; with His-tagged human TIGIT [5] it was 0.075 nM; in [6] it was 0.45 nM; with His-tagged human TIGIT [14] it was 0.081 nM; in [15], 1.8 nM. Moreover, the off-rate (koff) came to 0.00012 s⁻¹ with His-tagged human TIGIT [8]; 0.00017 s⁻¹ with His-tagged human TIGIT [4]; 4.7e-05 s⁻¹ with His-tagged human TIGIT [5]; 5.3e-05 s⁻¹ in [6]; 5.9e-05 s⁻¹ with His-tagged human TIGIT [14]; 0.0002 s⁻¹ in [15]. Moreover, the kon in the test with His-tagged human TIGIT [8] was 510000 M⁻¹ s⁻¹; with His-tagged human TIGIT [4] it was 610000 M⁻¹ s⁻¹; in the test with His-tagged human TIGIT [5], 630000 M⁻¹ s⁻¹; in [6], 120000 M⁻¹ s⁻¹; in the test with His-tagged human TIGIT [14] it was 730000 M⁻¹ s⁻¹; in [15], 110000 M⁻¹ s⁻¹. The “Bottom (RLU)” value was found to be 11200 RLU in test [13] and 55800 RLU in test [7]. The “Top (RLU)” value in test [13] worked out at 42800 RLU; in test [7] it was 148000 RLU.

B6: TIGIT-6 chimeric antibody (antibody, human IgG1, kappa, V domains shown)
VH: QVQLKQSGPELVKPGASVKISCKTSGYTITENTMHWVKQSHGKSLEWIGGINPNNGGTSYNQQFKGKATLTVDKSSSTAYMELRSLTSEDSAVYYCTRSSYYRYDLDYWGQGTTVTVSS
VL: DIQMTQSHKFMSTSVGDRVSITCKASQDVKTALAWYQQKPGQSPKLLIYSASYRYTGVPDRFTGSGSGTDFTFTISSVQAEDLAVYYCHQHYTTPWTFGGGTKLEIKR
notes: also called 6VH + 6VL
With B6, the values for the IC50 in test [1] and in test [12] were 0.566 nM and 0.57 nM, respectively. The EC50 turned out to be 0.42 nM in test [10]; 2.31 nM in test [2]; 2.64 nM in [11]; 0.581 nM in [3]; 9.42 nM in test [13]; 4.9 nM in test [7]. Besides, the Kd with His-tagged human TIGIT [16] was 0.29 nM; with His-tagged human TIGIT [17], 0.094 nM; with His-tagged human TIGIT [5], 0.17 nM; in [6], 39 nM; with His-tagged human TIGIT [14], 0.24 nM; in test [15], 54 nM. In addition, the koff with His-tagged human TIGIT [16] amounted to 0.00012 s⁻¹; in the test with His-tagged human TIGIT [17] it was 5.3e-05 s⁻¹; with His-tagged human TIGIT [5] it was 9e-05 s⁻¹; in test [6], 0.0046 s⁻¹; with His-tagged human TIGIT [14] it was 0.00013 s⁻¹; in [15] it was 0.0049 s⁻¹. Further, the kon with His-tagged human TIGIT [16] is 420000 M⁻¹ s⁻¹; in the test with His-tagged human TIGIT [17] it was 560000 M⁻¹ s⁻¹; in the test with His-tagged human TIGIT [5], 520000 M⁻¹ s⁻¹; in test [6], 120000 M⁻¹ s⁻¹; in the test with His-tagged human TIGIT [14] it was 560000 M⁻¹ s⁻¹; in [15] it was 90000 M⁻¹ s⁻¹. The “Bottom (RLU)” value in test [13] came to 10900 RLU; in [7], 51400 RLU. For the same molecule, the “Top (RLU)” value in test [13] turned out to be 49800 RLU; in test [7], 139000 RLU.
